This is an account of results in patent US20250319154A1.

The target of this test is leukocyte function antigen (LFA-1) on THP-1 cells (human) (UniProt P20701). The test is described as follows: cell-based or functional assay.
Sequence of leukocyte function antigen (LFA-1) on THP-1 cells (human) (P20701 26-1170, chain 1 of 2): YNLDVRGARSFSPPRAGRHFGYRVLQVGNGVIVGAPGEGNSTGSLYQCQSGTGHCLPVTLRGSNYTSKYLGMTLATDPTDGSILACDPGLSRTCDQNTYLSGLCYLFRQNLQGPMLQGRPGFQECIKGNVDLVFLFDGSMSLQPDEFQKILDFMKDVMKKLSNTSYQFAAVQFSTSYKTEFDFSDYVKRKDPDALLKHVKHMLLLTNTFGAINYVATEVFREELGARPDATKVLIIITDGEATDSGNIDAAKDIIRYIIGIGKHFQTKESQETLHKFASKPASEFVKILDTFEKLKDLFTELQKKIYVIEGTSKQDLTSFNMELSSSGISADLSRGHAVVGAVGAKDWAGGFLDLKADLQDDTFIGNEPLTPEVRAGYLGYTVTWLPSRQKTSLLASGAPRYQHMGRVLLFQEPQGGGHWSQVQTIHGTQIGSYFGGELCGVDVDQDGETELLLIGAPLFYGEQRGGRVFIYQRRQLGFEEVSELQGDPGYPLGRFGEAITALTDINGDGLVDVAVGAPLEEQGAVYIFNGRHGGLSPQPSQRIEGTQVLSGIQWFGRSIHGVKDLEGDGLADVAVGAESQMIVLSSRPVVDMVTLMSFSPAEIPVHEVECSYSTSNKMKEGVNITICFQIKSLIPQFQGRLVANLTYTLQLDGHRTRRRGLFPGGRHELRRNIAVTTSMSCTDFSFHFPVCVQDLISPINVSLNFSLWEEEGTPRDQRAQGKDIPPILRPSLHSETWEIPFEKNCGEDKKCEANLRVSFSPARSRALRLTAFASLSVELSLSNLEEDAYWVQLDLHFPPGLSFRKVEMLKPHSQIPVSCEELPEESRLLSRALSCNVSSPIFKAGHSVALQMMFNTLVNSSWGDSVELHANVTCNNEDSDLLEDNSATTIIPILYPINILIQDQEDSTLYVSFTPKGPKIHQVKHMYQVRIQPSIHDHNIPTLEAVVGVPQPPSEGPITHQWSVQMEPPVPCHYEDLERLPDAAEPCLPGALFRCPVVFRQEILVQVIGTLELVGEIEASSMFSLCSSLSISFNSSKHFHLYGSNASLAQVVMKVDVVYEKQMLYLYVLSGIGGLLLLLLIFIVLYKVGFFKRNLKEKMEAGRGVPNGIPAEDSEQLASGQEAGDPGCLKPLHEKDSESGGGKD
Sequence of leukocyte function antigen (LFA-1) on THP-1 cells (human) (P05107 23-769, chain 2 of 2, further chain): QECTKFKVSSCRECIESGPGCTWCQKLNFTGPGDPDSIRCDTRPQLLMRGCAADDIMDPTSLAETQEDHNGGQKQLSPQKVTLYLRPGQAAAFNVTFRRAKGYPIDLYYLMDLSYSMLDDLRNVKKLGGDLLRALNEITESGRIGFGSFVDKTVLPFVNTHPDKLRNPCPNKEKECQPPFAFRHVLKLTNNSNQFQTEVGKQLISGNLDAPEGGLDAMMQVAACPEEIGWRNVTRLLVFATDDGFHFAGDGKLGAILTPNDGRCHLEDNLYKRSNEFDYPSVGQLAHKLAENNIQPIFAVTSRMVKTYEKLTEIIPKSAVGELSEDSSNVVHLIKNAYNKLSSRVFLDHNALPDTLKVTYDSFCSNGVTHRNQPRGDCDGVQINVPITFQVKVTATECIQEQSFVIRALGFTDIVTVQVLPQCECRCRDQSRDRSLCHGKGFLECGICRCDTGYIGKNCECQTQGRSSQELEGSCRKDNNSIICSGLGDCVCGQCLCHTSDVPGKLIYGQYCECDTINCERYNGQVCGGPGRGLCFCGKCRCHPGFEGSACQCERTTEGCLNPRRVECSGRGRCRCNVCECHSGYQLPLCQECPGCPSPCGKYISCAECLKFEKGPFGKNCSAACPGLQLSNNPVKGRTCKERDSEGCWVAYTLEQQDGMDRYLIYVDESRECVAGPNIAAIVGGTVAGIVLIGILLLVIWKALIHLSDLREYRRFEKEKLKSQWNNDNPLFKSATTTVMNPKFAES

For “Leukotoxin (LtxA) polypeptide isolated from Aggregatibacter actinomycetemcomitans (from UniProt P16462 1-1055)”, the 10%-maximal effective concentration (EC10), calculated from an in vitro model using THP-1 cells is 0.02 µg/mL.
